Patent US7691567B2, “Methods and compositions relating to fortilin, an anti-apoptotic molecule, and modulators of fortilin” (Board of Regents, the University of Texas System, priority 2000, dated 2010)
“Also recorded” adds a separate entry of the source. Read-outs that look alike come from different tables or passages of the source.

Tests used:
MCL1 [1] = assay: Western blot of intracellular MCL1 concentration in U2OS cells overexpressing Fortilin; type: cell-based; conditions: U2OS stable transfectants, compared with control or wild type transfectants
p53 [2] = target: T1, p53 (Homo sapiens, UniProt P04637); assay: Coimmunoprecipitation of fortilin and p53 from U2OS cell lysates; type: binding; parameters: endogenous in cells; host or cells: U2OS
T1 sequence (P04637 whole entry, species assumed): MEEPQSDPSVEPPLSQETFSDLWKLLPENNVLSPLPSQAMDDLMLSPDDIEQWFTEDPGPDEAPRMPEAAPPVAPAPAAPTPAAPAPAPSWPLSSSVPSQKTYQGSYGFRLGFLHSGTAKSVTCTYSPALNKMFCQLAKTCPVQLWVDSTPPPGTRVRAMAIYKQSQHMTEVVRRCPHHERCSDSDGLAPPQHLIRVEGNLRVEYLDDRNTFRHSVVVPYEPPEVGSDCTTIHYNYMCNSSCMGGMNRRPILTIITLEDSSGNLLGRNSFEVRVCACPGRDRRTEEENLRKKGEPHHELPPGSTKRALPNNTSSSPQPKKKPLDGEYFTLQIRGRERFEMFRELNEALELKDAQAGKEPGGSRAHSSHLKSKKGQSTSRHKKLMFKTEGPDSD
Description: As in example 2, studies were initiated to determine whether p53 and Fortilin specifically interact in U2OS cells. Six million U2OS cells stably expressing either HA-fortilin or HA-only were suspended in lysis-binding-wash buffer (50 mM HEPES, pH7.5, 70 mM KCl, 0.5 mM ATP, 5 mM MgSO4, 1 mM DTT, 0.1% NP40, 2 mg/mL BSA, Aprotinin, PMSF, MG132 and protease inhibitor cocktail). Cells were then mechanically disrupted by nitrogen excavitation method. Cleared total cell lysates were incubated with […] anti-HA antibody (3F10, Roche), followed by the incubation with anti-mouse IgG conjugated to magnetic beads (Dynal USA) and extensive wash with lysis-binding-wash buffer.
Further experiments were conducted to determine in vivo immunoprecipitation of fortilin by p53. Twenty million U2OS cells were suspended in lysis-binding buffer (50 mM HEPES, pH7.5, 70 mM KCl, 0.5 mM ATP, 5 mM MgSO4, 1 mM DTT, 0.001% NP40, 2 mg/mL BSA, Aprotinin, PMSF, MG132 and protease inhibitor cocktail). Cells were then mechanically disrupted by nitrogen excavitation method. Cleared total cell lysates were divided equally into two eppendorf tubes. To the first tube, anti-p53 antibody (DO-1, […]) was added, while […] control monoclonal antibody was added to the second tube. After incubation, formed complexes were precipitated by goat anti-mouse IgG conjugated to magnetic beads (Dynal USA), followed by extensive wash. […]

Bcl-xL [3] = target: T2, Bcl-xL (Homo sapiens, UniProt Q07817); assay: In vitro pull-down assay of Fortilin-HA with Bcl-xL; type: binding; conditions: in vitro translated proteins, anti-HA pull-down
T2 sequence (Q07817 whole entry, species assumed): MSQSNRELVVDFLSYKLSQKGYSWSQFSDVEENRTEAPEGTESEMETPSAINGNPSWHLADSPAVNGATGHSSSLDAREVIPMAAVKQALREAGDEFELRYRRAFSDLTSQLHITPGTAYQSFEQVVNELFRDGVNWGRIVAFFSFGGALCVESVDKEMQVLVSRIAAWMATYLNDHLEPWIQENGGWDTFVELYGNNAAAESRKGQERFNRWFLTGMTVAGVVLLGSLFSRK

MCL1 [4] = target: T3, MCL1 (Homo sapiens, UniProt Q07820); assay: GST-Fortilin in vitro pull-down of labeled MCL1; type: binding; conditions: 35S-labeled MCL1
T3 sequence (Q07820 whole entry): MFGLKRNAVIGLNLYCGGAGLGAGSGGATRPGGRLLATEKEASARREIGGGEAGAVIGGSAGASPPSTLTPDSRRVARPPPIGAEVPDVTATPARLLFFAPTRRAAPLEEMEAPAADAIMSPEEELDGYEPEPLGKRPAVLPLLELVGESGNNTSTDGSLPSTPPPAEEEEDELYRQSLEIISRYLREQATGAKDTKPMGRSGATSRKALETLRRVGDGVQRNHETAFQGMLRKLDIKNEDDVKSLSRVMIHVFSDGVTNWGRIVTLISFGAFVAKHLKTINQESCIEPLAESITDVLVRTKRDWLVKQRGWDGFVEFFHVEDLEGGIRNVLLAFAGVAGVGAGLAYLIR
Description: (§1) Studies were initiated to determine whether p53 and Fortilin specifically interact. Either recombinant GST-Fortilin or GST only were incubated at 4° C. for 90 minutes with in vitro translated, [^35S-Met]-labeled p53, MCL1 or Bcl-xL, in Binding Buffer (50 mM HEPES, pH7.5, 70 mM KCl, 0.5 mM ATP, 5 mM MgSO4, 1 mM DTT, 0.001% NP40, 50 μM MG132, 2 μg/mL BSA, Aporotinin, PMSF and protease inhibitor cocktail (Sigma Co., St. Louis, Mo.)). The GST or GST-Fortilin was then pulled down with Glutathione Sepharose 4B beads (Amersham-Pharmacia Biotechnologies). Formed complexes were extensively washed and eluted into SDS loading buffer. The eluted proteins were subjected to SDS-PAGE in duplicate. The first SDS gel was stained with Commassie Blue to confirm the successful immunoprecipitation of GST and GST-Fortilin (IP). […] Thus, there is a specific interaction present between Fortilin and p53, between Fortilin and MCL1.

Bcl-xL [5] = target: T2, Bcl-xL; assay: GST-Fortilin in vitro pull-down of labeled Bcl-xL; type: binding; conditions: 35S-labeled Bcl-xL
Description: as §1

U2OS cells [6] = conditions: for cytotoxicity index relative to control transfectants: U2OS stable transfectants of HA-tagged Fortilin or deletion mutants, 5 μg/mL etoposide 48 hours
Description: Generation and characterization of U2OS cells stably expressing Fortilin. U2OS cells were transfected with empty pcDNA6, a mammalian expression vector containing a blasticidine resistance gene (Invitrogen, Carlsbad, Calif.), or with pcDNA6 vector encoding wild-type Fortilin, by using FuGENE6 (Roche Molecular Biochemicals) according to the manufacturer's instructions. Transfected cells were selected for approximately 3 weeks and characterized by Western blot analysis. For the cytotoxicity assay, U2OS cells stably expressing wild-type Fortilin (U2OS.F) and U2OS cells stably harboring empty pcDNA6 (U2OS.E) were seeded in a 96 well plate in quadruplicate. For the investigation of dose response, cells were challenged with various concentrations of etoposide (0-20 μg/mL) for 48 hours. For the time course study, cells were challenged with 5 μg/mL of etoposide and harvested after various incubation periods (0-96 hours). In both cases, the cell media were assayed for the lactate dehydrogenase (LDH) activity released from the cytosol of damaged cells, using a cytotoxicity detection kit (Roche Molecular Biochemicals) according to the manufacturer's instructions. The cytotoxicity index was calculated as follows: (LDH activity in the media−background LDH activity)÷(LDH activity in the medium of cells lysed by 1% Triton X-100−background LDH activity)×100.
Cell death assay. U2OS cells stably expressing Fortilin or its mutants were seeded in 96-well plates in triplicate. Cells were then challenged with 5 μg/mL of etoposide (Sigma) for 48 hours. Then the cell media were assayed for the lactate dehydrogenase (LDH) activity released from the cytosol of damaged cells, using a Cytotoxicity Detection Kit (Roche Molecular Biochemicals), according to the manufacturer's instructions. The cytotoxicity index was calculated as follows: (LDH activity in the media−background LDH activity)/(LDH activity in the medium of the cells lysed by 1% Triton X-100−background LDH activity)×100.
Statistical analysis. For analysis of the statistical significance of differences in cytotoxicity indices among cells stably transfected with Fortilin, its mutants or control plasmids, Student's t-test was performed using a commercial software (Minitab Inc., State College, Pa.). In all cases, a P-value less than 0.05 was considered to be statistically significant.

PCNA = PCNA (Homo sapiens, UniProt P12004); assay: In vitro pull-down assay of Fortilin-HA with PCNA; type: binding; conditions: in vitro translated proteins, anti-HA pull-down
Chain of PCNA (P12004 whole entry, species assumed): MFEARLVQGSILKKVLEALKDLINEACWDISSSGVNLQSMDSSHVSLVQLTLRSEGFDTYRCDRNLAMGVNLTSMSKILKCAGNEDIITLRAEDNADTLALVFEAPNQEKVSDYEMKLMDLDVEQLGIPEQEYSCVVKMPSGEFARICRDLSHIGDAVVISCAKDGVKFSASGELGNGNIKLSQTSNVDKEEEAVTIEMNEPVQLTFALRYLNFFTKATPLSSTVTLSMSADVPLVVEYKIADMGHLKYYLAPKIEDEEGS

H1299 cells = assay: p53-mediated apoptosis in transfected H1299 cells (apoptotic index); type: cell-based; conditions: overexpression, thirty hours after transfection
Description: Because wild-type p53 can induce apoptosis, the ability of Fortilin to prevent or inhibit p53-mediated apoptosis was examined. H1299 cells were transfected with indicated combinations of mammalian expression constructs. Thirty hours after the transfection, cells were fixed and stained for beta-galactosidase activities. Cells that were round in shape with significant membrane irregularity were counted as apoptotic (FIG. 5). Apoptotic index was calculated as (Blue cells with apoptotic plasma membrane morphology)/(Total blue cells counted)×100.

Bak = target: T4, Bak (Homo sapiens, UniProt Q16611); assay: In vitro pull-down assay of Fortilin-HA with Bak; type: binding; conditions: in vitro translated proteins, anti-HA pull-down
T4 sequence (Q16611 1-211): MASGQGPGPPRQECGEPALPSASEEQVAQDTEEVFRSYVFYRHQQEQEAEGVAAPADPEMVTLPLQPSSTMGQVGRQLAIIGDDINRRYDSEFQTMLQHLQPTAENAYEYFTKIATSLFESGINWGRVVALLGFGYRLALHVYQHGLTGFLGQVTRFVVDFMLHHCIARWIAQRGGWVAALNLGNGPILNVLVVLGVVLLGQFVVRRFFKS

MCL1 [7] = target: T3, MCL1; assay: In vitro pull-down assay of HA-tagged Fortilin or mutants with MCL1; type: binding; conditions: in vitro translated 35S-labeled proteins, anti-HA pull-down
MCL1 [8] = target: T3, MCL1; assay: In vivo coimmunoprecipitation assay in U2OS stable transfectants of Fortilin and mutants; conditions: anti-HA immunoprecipitation
Description: In vivo coimmunoprecipitation assay. COS-7 cells (2.5×10^6) were cotransfected with pcDNA3-Fortilin-HA or pcDNA3 and with FLAG-MCL1/pFLAG-CMV or pFLAG-CMV vectors using FuGENE6 (Roche Molecular Biochemicals), according to the manufacturer's instructions. […] Formed complexes were precipitated by sheep anti-rat antibodies conjugated to Dynabead™ (Dynal USA); washed with Buffers A and B; eluted into SDS gel loading buffer; and subjected to SDS-PAGE, Western blot transfer and immuodetection with anti-HA (16B12; Covance, Richmond, Calif.) and anti-FLAG (M2; Sigma) antibodies. […] Cells were harvested by scraping, washed with chilled PBS, suspended in Buffer C (Buffer A supplemented with 0.02% NP-40), and lysed by a nitrogen cavitation method (PARR Instrument Co). […] Formed complexes were precipitated by sheep anti-rat antibodies conjugated to Dynabeads™ (Dynal USA); washed with Buffers C; eluted into SDS gel loading buffer; and subjected to SDS-PAGE, Western blot transfer and immuodetection with anti-HA (16B12; Covance, Richmond, Calif.) and anti-MCL1 (Santa Cruz Biotechnology) antibodies.

p53 [9] = target: T1, p53; assay: GST-Fortilin in vitro pull-down of labeled p53; type: binding; conditions: 35S-labeled p53, 4° C. 90 minutes
Description: as §1

U2OS cells [10] = assay: Bax-mediated apoptosis in transfected U2OS cells (apoptotic index); type: cell-based; conditions: U2OS cells cotransfected with Bax-pcDNA3, thirty hours after transfection
Description: The amount of LacZ-pFLAG was 1/10 to 1/20 (w/w) of total amounts of DNA added. Thirty hours after the transfection, cells were stained with X-gal. Blue cells represented cells expressing Bax, β-galactosidase and indicated proteins in question. At least 300 blue cells were counted and evaluated for plasma membrane morphology. Rounded cells were counted as apoptotic. Apoptotic index was calculated as the number of blue apoptotic cells divided by the number of total blue cells counted, expressed in percentage. Without the expression of Bax, there was a modest amount of background cell death noted (Lane 6). On the other hand, the presence of Bax caused 2 holds increase in the number of apoptotic cells (Lane 5). […] Taken together, the ability of Fortilin to inhibit Bax mediated apoptosis is mediated by its interaction with MCL1.

Fortilin: 172 amino acid anti-apoptotic polypeptide (SEQ ID NO:2), overexpressed from expression constructs or used as recombinant/in vitro translated protein
expression levels of MCL1 (MCL1 Expression Index) (MCL1 [1]): similar | co-precipitation of fortilin and p53 in vivo (p53 [2]): The presence of immunoprecipitated p53 was necessary and sufficient to co-precipitate fortilin | co-immunoprecipitation of Bcl-xL with Fortilin in vitro (Bcl-xL [3]): not | co-precipitation of MCL1 with Fortilin in vitro (MCL1 [4]): co-precipitated with Fortilin | co-immunoprecipitation of Bcl-xL with Fortilin in vitro (Bcl-xL [5]): not Bcl-xL | cytotoxicity index relative to control transfectants (U2OS cells [6]; listed as wild type Fortilin): significantly lower | cytotoxicity index relative to control transfectants (U2OS cells [6]; listed as wild-type fortilin): significantly lower than the cytotoxicity index of control cells | etoposide-induced cytotoxicity (LDH cytotoxicity index), time course (U2OS cells [6]; U2OS stably expressing Fortilin vs empty vector, 5 μg/mL etoposide, 48, 72, 96 hours): lesser amounts of etoposide-induced cytotoxicity after incubation periods of 48, 72, and 96 hours; also recorded: significantly less cytotoxicity at various time points after the etoposide challenge | etoposide-induced cytotoxicity (LDH cytotoxicity index), dose response (U2OS cells [6]; U2OS stably expressing Fortilin vs empty vector, etoposide 2.5, 5, 10, 20 μg/mL, 48 hours): significantly lesser amounts of etoposide-induced cytotoxicity; also recorded: significantly less cytotoxicity over the wide range of etoposide concentrations | co-immunoprecipitation of PCNA with Fortilin in vitro (PCNA): not PCNA | suppression of p53 induced apoptosis (apoptotic index) (H1299 cells): statistically significant (p<0.001) suppression of p53-induced apoptosis; also recorded: statistically significant (p<0.001) suppression of p53 induced apoptosis | co-immunoprecipitation of Bak with Fortilin in vitro (Bak): not | interaction / co-immunoprecipitation with MCL1 in vitro (MCL1 [7]): co-immunoprecipitated with Fortilin in vitro | interaction / co-immunoprecipitation with MCL1 in vitro (MCL1 [7]; listed as full-length Fortilin): co-immunoprecipitated MCL1 in vitro; also recorded: interacted | co-immunoprecipitation of MCL1 in vivo (MCL1 [8]): co-immunoprecipitated MCL1 | co-immunoprecipitation of p53 with Fortilin in vitro (p53 [9]): co-immunoprecipitated with Fortilin in vitro | prevention of Bax mediated apoptosis (apoptotic index) (U2OS cells [10]): suppressed Bax induced cell death
